# No end group written: not given here.
# Molecular target: the molecule itself
# Experiment: rheology (elastic modulus G'), P11-4 at 15 mg/ml in different buffers, 37 C; homotypic self-assembly
# Experimental: P11-4 was prepared at 15 mg/ml with different buffer compositions (see below) measured at 0.1% strain, 37° C. and a frequency of 1 rad/second. Self-assembly of peptide monomers to polymers takes more than 5 min independent of the used ionic strength at neutral pH.
protein,measurement,value
QQRFEWEFEQQ (not fully specified; printed as Gln-Gln-Arg-Phe-Glu-Trp-Glu-Phe-Glu-Gln-Gln) [self-assembling peptide P11-4],binding result,binds
